These are literature values, as cited in article PMC11277083, “A Natural Bioactive Peptide from Pinctada fucata Pearls Can Be Used as a Potential Inhibitor of the Interaction between SARS-CoV-2 and ACE2 against COVID-19” (International Journal of Molecular Sciences, 2024).

This series has as its system SARS-CoV-2 pseudoparticle. Conditions: pretreatment; blocking the interaction between ACE2 and the RBD.

B1: human defensin 5 (HD5): human defensin 5 (peptide, UniProt Q01523 20-94, looked up)
Defensin alpha 5: ESLQERADEATTQKQSGEDNQDLAISFAGNGLSALRTSGSQARATCYCRTGRCATRESLSGVCEISGRLYRLCCR
modifications: Defensin-5
In the case of B1, the “effect on SARS-CoV-2 pseudoparticle infection” value is listed as “could reduce SARS-CoV-2 pseudoparticle infection”.
